Reference: doi:10.1101/197558 (bioRxiv, 2017)
Where a chain is given by its changes, count along the chain named. In names and notes the source's numbering stands. Like-named read-outs stand apart in the source and are kept apart here.

T1: full-length C. elegans MEI-1 (C. elegans, UniProt P34808 1-472)
T1 sequence (looked up): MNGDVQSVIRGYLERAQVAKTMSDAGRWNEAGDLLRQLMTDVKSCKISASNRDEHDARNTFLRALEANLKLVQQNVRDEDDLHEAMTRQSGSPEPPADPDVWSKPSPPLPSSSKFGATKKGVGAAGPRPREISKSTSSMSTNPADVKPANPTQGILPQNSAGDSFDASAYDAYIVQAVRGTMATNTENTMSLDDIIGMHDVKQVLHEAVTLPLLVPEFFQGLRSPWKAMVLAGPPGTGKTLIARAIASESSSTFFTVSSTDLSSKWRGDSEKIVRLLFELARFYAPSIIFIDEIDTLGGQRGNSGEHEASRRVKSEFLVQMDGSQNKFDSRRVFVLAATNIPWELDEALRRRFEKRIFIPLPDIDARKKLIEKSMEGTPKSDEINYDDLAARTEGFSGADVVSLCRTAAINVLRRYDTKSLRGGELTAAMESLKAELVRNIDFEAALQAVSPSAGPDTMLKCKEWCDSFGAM

B1: wild-type KATNAL1/B1-con80 complex (full length human KATNAL1 with the con80 domain, residues 411-655, of human KATNB1) (complex)
chain 1: MNLAEICDNAKKGREYALLGNYDSSMVYYQGVMQQIQRHCQSVRDPAIKGKWQQVRQELLEEYEQVKSIVSTLESFKIDKPPDFPVSCQDEPFRDPAVWPPPVPAEHRAPPQIRRPNREVRPLRKEMAGVGARGPVGRAHPISKSEKPSTSRDKDYRARGRDDKGRKNMQDGASDGEMPKFDGAGYDKDLVEALERDIVSRNPSIHWDDIADLEEAKKLLREAVVLPMWMPDFFKGIRRPWKGVLMVGPPGTGKTMLAKAVATECGTTFFNVSSSTLTSKYRGESEKLVRLLFEMARFYAPTTIFIDEIDSICSRRGTSDEHEASRRVKSELLIQMDGVGGALENDDPSKMVMVLAATNFPWDIDEALRRRLEKRIYIPLPTAKGRAELLKINLREVELDPDIQLEDIAEKIEGYSGADITNVCRDASLMAMRRRINGLSPEEIRALSKEELQMPVTKGDFELALKKIAKSVSAADLEKYEKWMVEFGSA
chain 2: AATAKEAAKPSPAMDVQFPVPNLEVLPRPPVVASTPAPKAEPAIIPATRNEPIGLKASDFLPAVKIPQQAELVDEDAMSQIRKGHDTMCVVLTSRHKNLDTVRAVWTMGDIKTSVDSAVAINDLSVVVDLLNIVNQKASLWKLDLCTTVLPQIEKLLQSKYESYVQTGCTSLKLILQRFLPLITDMLAAPPSVGVDISREERLHKCRLCYKQLKSISGLVKSKSGLSGRHGSTFRELHLLMASLD
B2: KATNAL1 (E308Q)/B1-con80 complex (complex, human)
chain 1: B1 chain 1 with E308Q
chain 2: B1 chain 2
B3: full length human KATNAL1 (E308Q) (enzyme, UniProt Q9BW62 1-490, looked up)
chain: B1 chain 1 with E308Q
B4: con80 domain (residues 411-655) of human KATNB1 (domain or fragment, UniProt Q9BVA0 411-655, looked up)
chain: B1 chain 2
B5: full-length C. elegans MEI-2 (natural protein, UniProt O44740 1-280, looked up)
chain: MSGLDDRKKLTHAKNRKPLNDIPKSAENRPNTRSTSSRRGAEKDVPITFIGSSRTVKADLPEFTNTRSRRPLHSESKKELSRNPVSRGEEHSSSLPKSSPESSVSVMSSNASLWSACTEEVNKIGVCAKRESRNLRVYKMKSFTSNMEQILSNDNQLAPTVIRILNSRNSWCLNSCHACLTFIMENITSDNYGKRSACLKALASITNSLLDTIIGFASTKTRRIGVDVVAEERAAKATECIHNFRKIVKNRDKIYKQIDQETIYKLDAILERLKKVSSHK
B6: C. elegans MEI-1/MEI-2 complex (full-length MEI-1 with full-length MEI-2) (complex)
chain 1: T1 sequence (looked up)
chain 2: B5 chain

How the values were obtained:
Assay in all cases: SEC-MALS
SEC-MALS [1] = target: the molecule itself
SEC-MALS [2] = target: the molecule itself; remark: listed apart in the source
[3] = target: full length human KATNAL1 (human, UniProt Q9BW62 1-490)
[4] = target: B3
[5] = target: T1, full-length C. elegans MEI-1

Row | Binder | stoichiometry N (SEC-MALS [1]) | stoichiometry N (SEC-MALS [2]) | other results
1 | B1 | 2 | – | –
2 | B2 | 6 | 2 | –
3 | B3 | 6 | – | –
4 | B4 | – | – | binding result [3]: binds; binding result [4]: binds
5 | B5 | – | – | binding result [5]: binds
6 | B6 | – | 2 | –
